# Reference: article PMC9482650, “Quantitative fragmentomics allow affinity mapping of interactomes” (Nature Communications, 2022)
# T1: SIPA1L2, Q9P2F8
# T1 sequence (Q9P2F8 945-1036, limits assumed, looked up): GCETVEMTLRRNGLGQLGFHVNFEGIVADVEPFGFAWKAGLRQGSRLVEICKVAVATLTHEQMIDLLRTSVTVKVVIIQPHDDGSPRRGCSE
# T2: SHANK1, Q9Y566
# T2 sequence (Q9Y566 658-767, limits assumed, looked up): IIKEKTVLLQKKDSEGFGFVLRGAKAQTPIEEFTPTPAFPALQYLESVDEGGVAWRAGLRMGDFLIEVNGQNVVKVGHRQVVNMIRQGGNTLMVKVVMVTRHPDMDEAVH
# T3: NHERF3_3, Q5T2W1
# T3 sequence (Q5T2W1 238-333, limits assumed, looked up): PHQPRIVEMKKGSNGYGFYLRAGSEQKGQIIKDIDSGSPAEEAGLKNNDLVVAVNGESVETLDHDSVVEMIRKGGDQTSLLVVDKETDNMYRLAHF
# T4: GRIP1_5, Q9Y3R0
# T4 sequence (Q9Y3R0 568-668, limits assumed, looked up): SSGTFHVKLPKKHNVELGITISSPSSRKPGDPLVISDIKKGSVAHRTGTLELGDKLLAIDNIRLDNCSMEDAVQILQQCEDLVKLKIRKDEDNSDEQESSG
# T5: LIN7C, Q9NUP9
# T5 sequence (Q9NUP9 88-185, limits assumed, looked up): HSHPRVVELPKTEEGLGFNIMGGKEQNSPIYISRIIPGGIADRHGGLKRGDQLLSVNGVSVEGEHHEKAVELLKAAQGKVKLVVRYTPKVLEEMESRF
# T6: DVL3, Q92997
# T6 sequence (Q92997 244-331, limits assumed, looked up): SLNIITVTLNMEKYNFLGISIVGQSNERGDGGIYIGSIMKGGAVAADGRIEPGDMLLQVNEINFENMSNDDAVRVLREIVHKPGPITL
# T7: DFNB31_3, Q9P202
# T7 sequence (Q9P202 811-907, limits assumed, looked up): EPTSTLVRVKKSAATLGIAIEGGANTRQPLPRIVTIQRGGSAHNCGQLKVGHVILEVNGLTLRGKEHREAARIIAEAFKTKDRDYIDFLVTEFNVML
# T8: SNTB1, Q13884
# T8 sequence (Q13884 107-205, limits assumed, looked up): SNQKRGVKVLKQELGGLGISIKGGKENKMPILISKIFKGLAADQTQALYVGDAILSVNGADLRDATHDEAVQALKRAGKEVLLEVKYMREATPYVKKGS
# T9: LNX2_2, Q8N448
# T9 sequence (Q8N448 334-432, limits assumed, looked up): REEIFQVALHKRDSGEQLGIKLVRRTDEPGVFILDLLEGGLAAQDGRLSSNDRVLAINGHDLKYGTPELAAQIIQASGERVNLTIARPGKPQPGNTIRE
# T10: DLG3_2, Q92796
# T10 sequence (Q92796 221-321, limits assumed, looked up): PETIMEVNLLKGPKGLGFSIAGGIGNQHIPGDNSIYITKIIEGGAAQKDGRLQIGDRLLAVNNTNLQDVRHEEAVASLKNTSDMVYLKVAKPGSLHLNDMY
# T11: MPDZ_5, O75970
# T11 sequence (O75970 695-796, limits assumed, looked up): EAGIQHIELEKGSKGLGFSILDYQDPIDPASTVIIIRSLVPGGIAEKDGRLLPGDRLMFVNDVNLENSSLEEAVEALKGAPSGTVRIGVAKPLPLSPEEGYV
# T12: NHERF3_4, Q5T2W1
# T12 sequence (Q5T2W1 373-468, limits assumed, looked up): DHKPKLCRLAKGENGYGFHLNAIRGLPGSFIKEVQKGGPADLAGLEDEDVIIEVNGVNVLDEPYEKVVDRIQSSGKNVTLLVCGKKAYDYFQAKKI
# Biological target: GORASP1, Q9BQQ3
# Experiment: holdup assay
# Parameters: key: below the threshold = too weak to quantify, mostly under pKd 3.1 to 4
# Conditions: plain residues with an end cap or a label only (N-terminal biotin on a linker: ado-ado)
# GORASP1, Q9BQQ3, sequence (Q9BQQ3 1-208): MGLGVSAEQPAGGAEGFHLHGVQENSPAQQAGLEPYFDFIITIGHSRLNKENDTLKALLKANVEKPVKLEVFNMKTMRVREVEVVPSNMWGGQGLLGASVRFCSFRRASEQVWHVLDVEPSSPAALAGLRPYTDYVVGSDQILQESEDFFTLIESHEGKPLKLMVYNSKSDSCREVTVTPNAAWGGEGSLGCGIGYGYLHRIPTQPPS
row,Binder,pKd
1,"SFISKKEWYV [NECTIN1, Q15223]",4.44
2,"DRIQSCLSDA [SBF1, O95248]",below the threshold

# Biological target: T1, SIPA1L2, Q9P2F8
# Experiment: holdup assay
# Parameters: key: below the threshold = too weak to quantify, mostly under pKd 3.1 to 4
# Conditions: plain residues with an end cap or a label only (N-terminal biotin on a linker: ado-ado)
row,Binder,pKd
1,"SFISKKEWYV [NECTIN1, Q15223]",below the threshold
2,"DRIQSCLSDA [SBF1, O95248]",below the threshold

# Biological target: T2, SHANK1, Q9Y566
# Experiment: holdup assay
# Parameters: key: below the threshold = too weak to quantify, mostly under pKd 3.1 to 4
# Conditions: plain residues with an end cap or a label only (N-terminal biotin on a linker: ado-ado)
row,Binder,pKd
1,"SFISKKEWYV [NECTIN1, Q15223]",below the threshold
2,"DRIQSCLSDA [SBF1, O95248]",below the threshold

# Biological target: FRMPD4, Q14CM0
# Experiment: holdup assay
# Parameters: key: below the threshold = too weak to quantify, mostly under pKd 3.1 to 4
# Conditions: plain residues with an end cap or a label only (N-terminal biotin on a linker: ado-ado)
# FRMPD4, Q14CM0, sequence (Q14CM0 67-160): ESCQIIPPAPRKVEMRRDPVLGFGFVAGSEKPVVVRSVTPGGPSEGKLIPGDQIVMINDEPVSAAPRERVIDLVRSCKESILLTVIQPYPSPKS
row,Binder,pKd
1,"SFISKKEWYV [NECTIN1, Q15223]",3.87
2,"DRIQSCLSDA [SBF1, O95248]",below the threshold

# Biological target: T3, NHERF3_3, Q5T2W1
# Experiment: holdup assay
# Parameters: key: below the threshold = too weak to quantify, mostly under pKd 3.1 to 4
# Conditions: plain residues with an end cap or a label only (N-terminal biotin on a linker: ado-ado)
row,Binder,pKd
1,"SFISKKEWYV [NECTIN1, Q15223]",below the threshold
2,"DRIQSCLSDA [SBF1, O95248]",below the threshold

# Biological target: TJP1_2, Q07157
# Experiment: holdup assay
# Parameters: key: below the threshold = too weak to quantify, mostly under pKd 3.1 to 4
# Conditions: plain residues with an end cap or a label only (N-terminal biotin on a linker: ado-ado)
# TJP1_2, Q07157, sequence (Q07157 181-274): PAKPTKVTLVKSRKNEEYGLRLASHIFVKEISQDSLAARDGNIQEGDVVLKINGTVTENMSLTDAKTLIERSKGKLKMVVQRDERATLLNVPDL
row,Binder,pKd
1,"SFISKKEWYV [NECTIN1, Q15223]",below the threshold
2,"DRIQSCLSDA [SBF1, O95248]",below the threshold

# Biological target: LNX1_2, Q8TBB1
# Experiment: holdup assay
# Parameters: key: below the threshold = too weak to quantify, mostly under pKd 3.1 to 4
# Conditions: plain residues with an end cap or a label only (N-terminal biotin on a linker: ado-ado)
# LNX1_2, Q8TBB1, sequence (Q8TBB1 371-470): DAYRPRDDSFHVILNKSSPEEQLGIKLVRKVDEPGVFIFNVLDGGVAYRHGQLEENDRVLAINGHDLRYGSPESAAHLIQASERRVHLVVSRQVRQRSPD
row,Binder,pKd
1,"SFISKKEWYV [NECTIN1, Q15223]",4.46
2,"DRIQSCLSDA [SBF1, O95248]",below the threshold

# Biological target: T4, GRIP1_5, Q9Y3R0
# Experiment: holdup assay
# Parameters: key: below the threshold = too weak to quantify, mostly under pKd 3.1 to 4
# Conditions: plain residues with an end cap or a label only (N-terminal biotin on a linker: ado-ado)
row,Binder,pKd
1,"SFISKKEWYV [NECTIN1, Q15223]",below the threshold
2,"DRIQSCLSDA [SBF1, O95248]",below the threshold

# Biological target: PICK1, Q9NRD5
# Experiment: holdup assay
# Parameters: key: below the threshold = too weak to quantify, mostly under pKd 3.1 to 4
# Conditions: plain residues with an end cap or a label only (N-terminal biotin on a linker: ado-ado)
# PICK1, Q9NRD5, sequence (Q9NRD5 17-115): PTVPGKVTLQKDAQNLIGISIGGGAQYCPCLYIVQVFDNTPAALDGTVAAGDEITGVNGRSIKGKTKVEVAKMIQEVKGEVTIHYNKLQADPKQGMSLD
row,Binder,pKd
1,"SFISKKEWYV [NECTIN1, Q15223]",4.24
2,"DRIQSCLSDA [SBF1, O95248]",below the threshold

# Biological target: T5, LIN7C, Q9NUP9
# Experiment: holdup assay
# Parameters: key: below the threshold = too weak to quantify, mostly under pKd 3.1 to 4
# Conditions: plain residues with an end cap or a label only (N-terminal biotin on a linker: ado-ado)
row,Binder,pKd
1,"SFISKKEWYV [NECTIN1, Q15223]",below the threshold
2,"DRIQSCLSDA [SBF1, O95248]",3.84

# Biological target: T6, DVL3, Q92997
# Experiment: holdup assay
# Parameters: key: below the threshold = too weak to quantify, mostly under pKd 3.1 to 4
# Conditions: plain residues with an end cap or a label only (N-terminal biotin on a linker: ado-ado)
row,Binder,pKd
1,"SFISKKEWYV [NECTIN1, Q15223]",4.51
2,"DRIQSCLSDA [SBF1, O95248]",below the threshold

# Biological target: T7, DFNB31_3, Q9P202
# Experiment: holdup assay
# Parameters: key: below the threshold = too weak to quantify, mostly under pKd 3.1 to 4
# Conditions: plain residues with an end cap or a label only (N-terminal biotin on a linker: ado-ado)
row,Binder,pKd
1,"SFISKKEWYV [NECTIN1, Q15223]",below the threshold
2,"DRIQSCLSDA [SBF1, O95248]",3.74

# Biological target: T8, SNTB1, Q13884
# Experiment: holdup assay
# Parameters: key: below the threshold = too weak to quantify, mostly under pKd 3.1 to 4
# Conditions: plain residues with an end cap or a label only (N-terminal biotin on a linker: ado-ado)
row,Binder,pKd
1,"SFISKKEWYV [NECTIN1, Q15223]",below the threshold
2,"DRIQSCLSDA [SBF1, O95248]",below the threshold

# Biological target: T9, LNX2_2, Q8N448
# Experiment: holdup assay
# Parameters: key: below the threshold = too weak to quantify, mostly under pKd 3.1 to 4
# Conditions: plain residues with an end cap or a label only (N-terminal biotin on a linker: ado-ado)
row,Binder,pKd
1,"SFISKKEWYV [NECTIN1, Q15223]",5.05
2,"DRIQSCLSDA [SBF1, O95248]",below the threshold

# Biological target: GORASP2, Q9H8Y8
# Experiment: holdup assay
# Parameters: key: below the threshold = too weak to quantify, mostly under pKd 3.1 to 4
# Conditions: plain residues with an end cap or a label only (N-terminal biotin on a linker: ado-ado)
row,Binder,pKd
1,"SFISKKEWYV [NECTIN1, Q15223]",4.67
2,"DRIQSCLSDA [SBF1, O95248]",below the threshold

# Biological target: GRID2IP_1, A4D2P6
# Experiment: holdup assay
# Parameters: key: below the threshold = too weak to quantify, mostly under pKd 3.1 to 4
# Conditions: plain residues with an end cap or a label only (N-terminal biotin on a linker: ado-ado)
# GRID2IP_1, A4D2P6, sequence (A4D2P6 1-87): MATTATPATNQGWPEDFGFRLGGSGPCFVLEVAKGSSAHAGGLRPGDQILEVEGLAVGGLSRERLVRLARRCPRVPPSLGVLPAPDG
row,Binder,pKd
1,"SFISKKEWYV [NECTIN1, Q15223]",below the threshold
2,"DRIQSCLSDA [SBF1, O95248]",below the threshold

# Biological target: SCRIB_2, Q14160
# Experiment: holdup assay
# Parameters: key: below the threshold = too weak to quantify, mostly under pKd 3.1 to 4
# Conditions: plain residues with an end cap or a label only (N-terminal biotin on a linker: ado-ado)
# SCRIB_2, Q14160, sequence (Q14160 857-960): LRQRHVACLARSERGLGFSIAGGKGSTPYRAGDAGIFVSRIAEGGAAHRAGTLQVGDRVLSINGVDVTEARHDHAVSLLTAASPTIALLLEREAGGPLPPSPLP
row,Binder,pKd
1,"SFISKKEWYV [NECTIN1, Q15223]",below the threshold
2,"DRIQSCLSDA [SBF1, O95248]",below the threshold

# Biological target: FRMPD2_3, Q68DX3
# Experiment: holdup assay
# Parameters: key: below the threshold = too weak to quantify, mostly under pKd 3.1 to 4
# Conditions: plain residues with an end cap or a label only (N-terminal biotin on a linker: ado-ado)
# FRMPD2_3, Q68DX3, sequence (Q68DX3 1073-1166): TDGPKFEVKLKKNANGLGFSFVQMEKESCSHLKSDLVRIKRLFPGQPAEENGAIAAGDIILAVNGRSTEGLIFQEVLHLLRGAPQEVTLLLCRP
row,Binder,pKd
1,"SFISKKEWYV [NECTIN1, Q15223]",4.31
2,"DRIQSCLSDA [SBF1, O95248]",below the threshold

# Biological target: GRIP2_3, Q9C0E4
# Experiment: holdup assay
# Parameters: key: below the threshold = too weak to quantify, mostly under pKd 3.1 to 4
# Conditions: plain residues with an end cap or a label only (N-terminal biotin on a linker: ado-ado)
# GRIP2_3, Q9C0E4, sequence (Q9C0E4 238-339): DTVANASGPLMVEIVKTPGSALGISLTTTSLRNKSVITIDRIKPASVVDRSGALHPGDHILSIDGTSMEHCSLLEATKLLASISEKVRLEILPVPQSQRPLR
row,Binder,pKd
1,"SFISKKEWYV [NECTIN1, Q15223]",below the threshold
2,"DRIQSCLSDA [SBF1, O95248]",below the threshold

# Biological target: T10, DLG3_2, Q92796
# Experiment: holdup assay
# Parameters: key: below the threshold = too weak to quantify, mostly under pKd 3.1 to 4
# Conditions: plain residues with an end cap or a label only (N-terminal biotin on a linker: ado-ado)
row,Binder,pKd
1,"SFISKKEWYV [NECTIN1, Q15223]",4.11
2,"DRIQSCLSDA [SBF1, O95248]",4.19

# Biological target: T11, MPDZ_5, O75970
# Experiment: holdup assay
# Parameters: key: below the threshold = too weak to quantify, mostly under pKd 3.1 to 4
# Conditions: plain residues with an end cap or a label only (N-terminal biotin on a linker: ado-ado)
row,Binder,pKd
1,"SFISKKEWYV [NECTIN1, Q15223]",4.61
2,"DRIQSCLSDA [SBF1, O95248]",below the threshold

# Biological target: AHNAK1, Q09666
# Experiment: holdup assay
# Parameters: key: below the threshold = too weak to quantify, mostly under pKd 3.1 to 4
# Conditions: plain residues with an end cap or a label only (N-terminal biotin on a linker: ado-ado)
# AHNAK1, Q09666, sequence (Q09666 4-100): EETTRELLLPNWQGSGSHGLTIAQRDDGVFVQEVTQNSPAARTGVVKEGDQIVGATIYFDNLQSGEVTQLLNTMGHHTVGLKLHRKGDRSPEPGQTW
row,Binder,pKd
1,"SFISKKEWYV [NECTIN1, Q15223]",below the threshold
2,"DRIQSCLSDA [SBF1, O95248]",below the threshold

# Biological target: T12, NHERF3_4, Q5T2W1
# Experiment: holdup assay
# Parameters: key: below the threshold = too weak to quantify, mostly under pKd 3.1 to 4
# Conditions: plain residues with an end cap or a label only (N-terminal biotin on a linker: ado-ado)
row,Binder,pKd
1,"SFISKKEWYV [NECTIN1, Q15223]",below the threshold
2,"DRIQSCLSDA [SBF1, O95248]",below the threshold

# Biological target: MAGI3_2, Q5TCQ9
# Experiment: holdup assay
# Parameters: key: below the threshold = too weak to quantify, mostly under pKd 3.1 to 4
# Conditions: plain residues with an end cap or a label only (N-terminal biotin on a linker: ado-ado)
# MAGI3_2, Q5TCQ9, sequence (Q5TCQ9 398-503): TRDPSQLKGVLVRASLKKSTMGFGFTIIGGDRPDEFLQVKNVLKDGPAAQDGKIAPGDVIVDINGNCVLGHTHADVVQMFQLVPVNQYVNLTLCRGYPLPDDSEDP
row,Binder,pKd
1,"SFISKKEWYV [NECTIN1, Q15223]",5.55
2,"DRIQSCLSDA [SBF1, O95248]",below the threshold

# Biological target: Inadl_2, Q8NI35
# Experiment: holdup assay
# Parameters: key: below the threshold = too weak to quantify, mostly under pKd 3.1 to 4
# Conditions: plain residues with an end cap or a label only (N-terminal biotin on a linker: ado-ado)
# Inadl_2, Q8NI35, sequence (Q8NI35 238-335): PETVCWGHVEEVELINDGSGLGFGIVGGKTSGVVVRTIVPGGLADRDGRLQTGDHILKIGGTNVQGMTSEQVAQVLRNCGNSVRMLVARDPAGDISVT
row,Binder,pKd
1,"SFISKKEWYV [NECTIN1, Q15223]",4.8
2,"DRIQSCLSDA [SBF1, O95248]",below the threshold
